Reference: patent US20260022175A1 (Chugai, published 2026)

Key:
[1] = molecular target: T1, human FcγRIIa R extracellular domain (human, UniProt P12318 34-217); test: SPR Biacore 8K+, antibody captured, FcγR as analyte, 1:1 Langmuir model;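 note: antibodies captured on a streptavidin chip through a biotinylated anti-human Fab kappa reagent, with FcγR extracellular domains injected in pH 7.4 phosphate buffer at 25 °C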
T1 construct: extracellular domain; also called hFcγR IIa R
T1 sequence (looked up): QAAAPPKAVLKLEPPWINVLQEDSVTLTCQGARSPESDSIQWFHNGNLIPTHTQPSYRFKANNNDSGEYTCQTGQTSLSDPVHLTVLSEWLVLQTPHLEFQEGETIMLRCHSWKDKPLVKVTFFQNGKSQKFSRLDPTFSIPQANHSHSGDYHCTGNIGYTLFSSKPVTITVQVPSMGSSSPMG

[2] = molecular target: T2, human FcγRIIIa F extracellular domain (human, UniProt P08637 17-208); test: as above
T2 construct: extracellular domain; also called hFcγR IIIa F
T2 sequence (P08637 17-208): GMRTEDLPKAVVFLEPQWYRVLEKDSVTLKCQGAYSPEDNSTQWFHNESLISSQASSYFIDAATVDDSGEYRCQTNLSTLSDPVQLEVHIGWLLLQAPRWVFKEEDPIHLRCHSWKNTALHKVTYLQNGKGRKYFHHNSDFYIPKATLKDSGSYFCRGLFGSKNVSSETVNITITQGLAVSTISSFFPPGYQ

[3] = molecular target: T3, human FcγRIIIa V extracellular domain (human, UniProt P08637 17-208); test: as above
T3 construct: extracellular domain; also called hFcγR IIIa V
T3 sequence (P08637 17-208 F176V limits assumed): as the sequence (P08637 17-208) above, with F160V counted along it

[4] = molecular target: T4, human FcγRIIa H extracellular domain (human, UniProt P12318 34-217); test: as above
T4 construct: extracellular domain; also called hFcγR IIa H
T4 sequence (looked up): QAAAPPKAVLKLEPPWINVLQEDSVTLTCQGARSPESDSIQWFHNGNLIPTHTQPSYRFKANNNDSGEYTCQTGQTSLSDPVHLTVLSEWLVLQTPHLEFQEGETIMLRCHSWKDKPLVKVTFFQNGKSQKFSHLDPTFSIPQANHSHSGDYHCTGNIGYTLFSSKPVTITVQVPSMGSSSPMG

[5] = molecular target: T5, human FcγRIa extracellular domain (human, UniProt P12314 16-292); test: as above
T5 construct: extracellular domain; also called hFcγR Ia; hFcγRIa
T5 sequence (P12314 16-292): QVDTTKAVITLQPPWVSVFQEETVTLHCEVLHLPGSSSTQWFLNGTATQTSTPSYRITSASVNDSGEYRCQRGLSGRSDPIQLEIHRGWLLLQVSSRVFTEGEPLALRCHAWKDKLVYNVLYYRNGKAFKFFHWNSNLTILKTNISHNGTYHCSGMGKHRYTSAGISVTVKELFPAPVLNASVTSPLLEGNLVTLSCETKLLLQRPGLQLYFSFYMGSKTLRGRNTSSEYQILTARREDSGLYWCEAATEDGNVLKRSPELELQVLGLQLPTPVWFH

[6] = molecular target: T6, human FcγRIIb extracellular domain (human, UniProt P31994 43-217); test: SPR Biacore 8K+, antibody captured, FcγR as analyte, steady state affinity model
T6 construct: extracellular domain; also called hFcγR IIb
T6 sequence (looked up): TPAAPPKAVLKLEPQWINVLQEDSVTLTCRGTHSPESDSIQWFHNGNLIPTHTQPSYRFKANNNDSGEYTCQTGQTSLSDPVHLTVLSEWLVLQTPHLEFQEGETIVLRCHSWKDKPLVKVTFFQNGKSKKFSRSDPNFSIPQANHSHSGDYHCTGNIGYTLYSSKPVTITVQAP

[7] = molecular target: T7, hFcγRIIaH on hFcγRIIaH-expressing Jurkat cells (human, UniProt P12318 34-317); test: cell-based or functional assay
T7 sequence (looked up): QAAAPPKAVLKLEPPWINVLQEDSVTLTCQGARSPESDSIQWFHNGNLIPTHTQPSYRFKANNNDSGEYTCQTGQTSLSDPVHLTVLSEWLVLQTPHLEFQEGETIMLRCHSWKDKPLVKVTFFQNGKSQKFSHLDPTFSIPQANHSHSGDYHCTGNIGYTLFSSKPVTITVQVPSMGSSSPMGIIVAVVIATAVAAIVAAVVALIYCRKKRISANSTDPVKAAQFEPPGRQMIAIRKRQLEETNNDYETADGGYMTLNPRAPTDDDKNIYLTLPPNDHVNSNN

[8] = molecular target: T8, human C1q protein (Calbiochem) (human, UniProt P02745 23-245; P02746 28-253; P02747 29-245); test: ELISA: antibody coated on the plate at the varied concentration, hC1q 3 µg/mL added, detected with HRP-conjugated anti-hC1q antibody, O.D (450-690nm)
T8 construct: bought; also called hC1q
T8 sequence (P02745 23-245 limits assumed, chain 1 of 3): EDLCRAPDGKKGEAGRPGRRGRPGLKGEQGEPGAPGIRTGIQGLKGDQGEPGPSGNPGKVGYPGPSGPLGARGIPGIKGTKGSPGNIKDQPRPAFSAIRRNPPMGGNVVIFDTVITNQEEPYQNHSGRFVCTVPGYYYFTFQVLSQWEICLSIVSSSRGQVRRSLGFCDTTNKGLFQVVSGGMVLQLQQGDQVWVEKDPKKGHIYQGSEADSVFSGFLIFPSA
T8 sequence (P02746 28-253 limits assumed, chain 2 of 3): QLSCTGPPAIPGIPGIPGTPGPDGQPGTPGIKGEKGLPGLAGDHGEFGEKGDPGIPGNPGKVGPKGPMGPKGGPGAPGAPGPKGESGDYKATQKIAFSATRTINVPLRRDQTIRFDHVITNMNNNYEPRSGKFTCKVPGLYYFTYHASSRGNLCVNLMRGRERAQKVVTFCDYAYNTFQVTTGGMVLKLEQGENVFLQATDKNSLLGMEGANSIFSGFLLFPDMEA
T8 sequence (P02747 29-245 limits assumed, chain 3 of 3): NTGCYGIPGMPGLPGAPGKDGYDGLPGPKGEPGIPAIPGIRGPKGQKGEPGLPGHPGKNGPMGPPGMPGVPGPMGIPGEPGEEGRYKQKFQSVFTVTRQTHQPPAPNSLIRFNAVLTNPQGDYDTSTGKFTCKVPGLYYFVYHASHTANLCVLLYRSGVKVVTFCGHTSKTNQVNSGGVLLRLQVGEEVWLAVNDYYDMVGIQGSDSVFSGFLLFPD

[9] = molecular target: T1, human FcγRIIa R extracellular domain; test: SPR Biacore 8K+; KD for FcγRIIb divided by KD for this FcγR;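 note: antibodies captured on an anti-human Fab kappa SA chip with soluble human FcγR ectodomains flowed over, FcγRIIb KD from steady-state fit, other FcγR KD from Langmuir model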
[10] = molecular target: T2, human FcγRIIIa F extracellular domain; test: as above
[11] = molecular target: T3, human FcγRIIIa V extracellular domain; test: as above
[12] = molecular target: T4, human FcγRIIa H extracellular domain; test: as above
[13] = molecular target: T1, human FcγRIIa R extracellular domain; test: SPR Biacore 8K+; KD of G1d divided by KD of this antibody;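 note: antibodies captured on an anti-Fab-kappa streptavidin chip, soluble FcγR ectodomains flowed over, KD by steady-state fit for FcγRIIb and Langmuir kinetic model for the other receptors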
[14] = molecular target: T6, human FcγRIIb extracellular domain; test: as above
[15] = molecular target: T2, human FcγRIIIa F extracellular domain; test: as above
[16] = molecular target: T3, human FcγRIIIa V extracellular domain; test: as above
[17] = molecular target: T4, human FcγRIIa H extracellular domain; test: as above
[18] = molecular target: T5, human FcγRIa extracellular domain; test: as above
[19] = molecular target: hFcγRIIIaV on hFcγRIIIaV-expressing Jurkat cells (human, UniProt P08637 17-254); test: cell-based or functional assay
Chain of hFcγRIIIaV on hFcγRIIIaV-expressing Jurkat cells (P08637 17-254, form in doubt): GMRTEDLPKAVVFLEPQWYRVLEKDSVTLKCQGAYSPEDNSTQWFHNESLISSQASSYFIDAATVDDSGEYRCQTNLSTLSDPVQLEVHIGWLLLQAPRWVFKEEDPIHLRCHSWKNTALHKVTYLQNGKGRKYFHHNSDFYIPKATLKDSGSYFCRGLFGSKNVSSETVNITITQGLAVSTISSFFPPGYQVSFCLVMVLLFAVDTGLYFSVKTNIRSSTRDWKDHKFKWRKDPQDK

[20] = molecular target: T9, hCTLA4-His-BAP (human CTLA4 extracellular region with C-terminal His-tag and BAP-tag) (human, biotin on the BAP-tag); test: SPR 37C, hCTLA4 1000 nM, ATP 100 µM; ATP 100 µM; binding amount at 1000 nM hCTLA4
T9 construct: also called hCTLA4-His-Biotin
T9 sequence (chain, as listed by the source limits assumed): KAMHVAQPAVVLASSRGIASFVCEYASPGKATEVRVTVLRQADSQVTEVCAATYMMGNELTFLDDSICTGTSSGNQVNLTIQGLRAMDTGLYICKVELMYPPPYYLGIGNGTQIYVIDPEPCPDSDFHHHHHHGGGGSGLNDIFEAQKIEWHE

[21] = molecular target: T9, hCTLA4-His-BAP (human CTLA4 …); test: SPR 37C, ATP 10 µM; ATP 10 µM
[22] = molecular target: T9, hCTLA4-His-BAP (human CTLA4 …); test: SPR 37C, hCTLA4 1000 nM, no ATP; no ATP; binding amount at 1000 nM hCTLA4
[23] = molecular target: T9, hCTLA4-His-BAP (human CTLA4 …); test: SPR 37C, hCTLA4 1000 nM, ATP 1 µM; ATP 1 µM; binding amount at 1000 nM hCTLA4
[24] = molecular target: T9, hCTLA4-His-BAP (human CTLA4 …); test: SPR 37C, hCTLA4 1000 nM, ATP 10 µM; ATP 10 µM; binding amount at 1000 nM hCTLA4
[25] = molecular target: T9, hCTLA4-His-BAP (human CTLA4 …); test: SPR 37C, ATP 100 µM; ATP 100 µM

B1: H240-Kn462/L73-k0//H240-Hl441/L73-k0 (antibody, human IgG1, kappa)
heavy 1: QDQLVQSGAEVKKPGASVKVSCKASGFNIKDTYIQWVRQAPGQGLEWMGRIDPLRKQTKYREKFEGRVTITADTSTNTAYMELSSLRSEDTAVYYCVRSGREFDYWGQGTLVTVSSASTKGPSVFPLAPSSKSTSGGTAALGCLVKDYFPEPVTVSWNSGALTSGVHTFPAVLQSSGLYSLSSVVTVPSSSLGTQTYICNVNHKPSNTKVDKKVEPKSCDKTHTCPPCPAPEFQWGPMVFLFPPKPKDVLMISRTPEVTCVVVDVSDEEPEVKFNWYVDGVEVHNAKTKPREEQYNATYRVVSVLPVLHQDWLNGKEYKCKVSNDALPAPIEKTISKAKGQPREPQVCTLPPSRDELTKNQVSLWCLVKGFYPSDIAVEWESNGQPENNYKTTPPVLDSDGSFFLYSKLTVDKSRWQQGNVFSCSVMHEALHNHYTQKSLSLSP
heavy 2: QDQLVQSGAEVKKPGASVKVSCKASGFNIKDTYIQWVRQAPGQGLEWMGRIDPLRKQTKYREKFEGRVTITADTSTNTAYMELSSLRSEDTAVYYCVRSGREFDYWGQGTLVTVSSASTKGPSVFPLAPSSKSTSGGTAALGCLVKDYFPEPVTVSWNSGALTSGVHTFPAVLQSSGLYSLSSVVTVPSSSLGTQTYICNVNHKPSNTKVDKKVEPKSCDKTHTCPPCPAPELLAGPSVFLFPPKPKDVLMISRTPEVTCVVVDVSHEEPEVKFNWYVDGVEVHNAKTKPREEQYNATYRVVSVLPVLHQDWLNGKEYKCKVSNDALPAPIEETISKAKGQPREPQVYTLPPSRCELTKNQVSLSCAVKGFYPSDIAVEWESNGQPENNYKTTPPVLDSDGSFFLVSKLTVDKSRWQQGNVFSCSVMHEALHNHYTQKSLSLSP
light: DIQMTQSPSSLSASVGDRVTITCRASQDIHKYIAWYQQKPGQAPRLLIQYTSTLQPGVPSRFSGSGSGTDYTFTISSLQPEDIATYYCLQYEQLRTFGGGTKVEIKRTVAAPSVFIFPPSDEQLKSGTASVVCLLNNFYPREAKVQWKVDNALQSGNSQESVTEQDSKDSTYSLSSTLTLSKADYEKHKVYACEVTHQGLSSPVTKSFNRGEC
notes: also called EGL-ART5; ART5
Work on B1 yielded a Kd [1] of 160 nM, a Kd [2] of 20 nM and a Kd [3] of 3.86 nM. For the same binder, the Kd [4] was 33.2 nM, the Kd [5] was 0.169 nM and the Kd [6] was 7960 nM. The “EC50 value (hFcγRIIaH ADCP Reporter Bioassay, Hepa1-6/hEREG target cells)” value [7] was 0.0245 µg/mL, the binding result [8] was “binds” and the “A/I ratio (KD for FcγRIIb divided by KD for each FcγR)” value [9] was 49.9. For the same binder, the “A/I ratio (KD for FcγRIIb divided by KD for each FcγR)” value [10] was 399, the “A/I ratio (KD for FcγRIIb divided by KD for each FcγR)” value [11] was 2060 and the “A/I ratio (KD for FcγRIIb divided by KD for each FcγR)” value [12] was 240. For the same binder, the “Relative value to KD between G1d and hFcgRs” value (from here on “Relative value”) [13] was 10.4, the “Relative value” value [14] was 1.3 and the “Relative value” value [15] was 148. The “Relative value” value [16] was 92.9, the “Relative value” value [17] was 33.9 and the “Relative value” value [18] was 0.5. For the same binder, the “EC50 value (hFcγRIIIaV ADCC Reporter Bioassay, Hepa1-6/hEREG target cells)” value [19] was 0.00167 µg/mL.

B2: 04H1077-G1m/04L1041-lam1 (antibody, human IgG1, lambda, V domains shown)
VH: EVQLVESGGDLVKPGGGLRLSCAASGFTFSSRTMNWVRQAPGKGLEWVSSISTRSGYIYYAESVKGRFTISRDNAKNSLYLQMNSLRAEDTAVYYCARYGKREDMLWVFDYWGQGTLVTVSS
VL: QSALTQPPSASGSPGQTVTISCDGPSTDVGDYNYVHWYQQHPGKAPKLMIYFTSKKPSGVPDRFSGSKSGNTASLTVSGLQAEDEADYFCSTYAAPLGPMFGGGTKLTVLG
With B2 the “Binding to Human CTLA4” value [20] was 0.172 per unit amount of antibody, the Kd [21] was 730 nM and the “Binding to Human CTLA4” value [22] was 0.006 per unit amount of antibody. For the same binder, the “Binding to Human CTLA4” value [23] was 0.023 per unit amount of antibody, the “Binding to Human CTLA4” value [24] was 0.094 per unit amount of antibody and the Kd [25] was 140 nM.

B3: 04H1077-G1m/04L1086-lam1 (antibody, human IgG1, lambda, V domains shown)
VH: EVQLVESGGDLVKPGGGLRLSCAASGFTFSSRTMNWVRQAPGKGLEWVSSISTRSGYIYYAESVKGRFTISRDNAKNSLYLQMNSLRAEDTAVYYCARYGKREDMLWVFDYWGQGTLVTVSS
VL: QSALTQPPSASGSPGQTVTISCDGPSTGVGDYNYVHWYQQHPGKAPKLMIYFTSKKPSGVPDRFSGSKSGNTASLTVSGLQAEDEADYFCQTYAAPLGPMFGGGTKLTVLG
With B3 the “Binding to Human CTLA4” value [20] was 0.181 per unit amount of antibody, the Kd [21] was 690 nM and the “Binding to Human CTLA4” value [22] was 0.01 per unit amount of antibody. The “Binding to Human CTLA4” value [23] was 0.031 per unit amount of antibody, the “Binding to Human CTLA4” value [24] was 0.106 per unit amount of antibody and the Kd [25] was 110 nM.

B4: 04H1077-G1m/04L1067-lam1 (antibody, human IgG1, lambda, V domains shown)
VH: EVQLVESGGDLVKPGGGLRLSCAASGFTFSSRTMNWVRQAPGKGLEWVSSISTRSGYIYYAESVKGRFTISRDNAKNSLYLQMNSLRAEDTAVYYCARYGKREDMLWVFDYWGQGTLVTVSS
VL: QSALTQPPSASGSPGQTVTISCDGPSTGVGDYNYVHWYQQHPGKAPKLMIYFTSKKPSGVPDRFSGSKSGNTASLTVSGLQAEDEADYFCSTYAAPLGPMFGGGTKLTVLG
B4 was tested, and the “Binding to Human CTLA4” value [20] was 0.192 per unit amount of antibody, the Kd [21] was 400 nM and the “Binding to Human CTLA4” value [22] was 0.012 per unit amount of antibody. For the same binder, the “Binding to Human CTLA4” value [23] was 0.041 per unit amount of antibody, the “Binding to Human CTLA4” value [24] was 0.131 per unit amount of antibody and the Kd [25] was 76 nM.
